The values that follow come from US7018791B1, “Binding complexes” (Institute of Cancer Research: Royal Cancer Hospital, priority 1997, dated 2006).

The target in assay [1] is T1, CCT.
T1 construct: Take 20S mouse testis sucrose gradient fractions enriched in CCT; from tissue; host or cells: mouse testis, 20S sucrose gradient fractions
The assay is described as follows: CCT binding to immobilised actin peptide array (Pepset pins, MAb 91a ELISA, absorbance 410 nm). As to conditions: FIG. 9; mouse testis CCT. From the text:
Peptides of 15 amino acids in length were synthesised on polyethylene pins mounted on blocks according to the method of Maeji et al (Maeji N. J. et al, 1994) and commercially available under the trade name of Pepsets™ from Chiron Mimotopes. The sequence of the peptides were such that they defined the full length of the actin sequence with a 5 amino acid overlap between the sequential peptides, and selected peptides representing key known structures in actin (Table 2 annotated). The peptides are synthesised on polyethylene pins which are presented to be compatible with standard 96 well microtitre plates. The pins become the solid phase on which interactions with CCT complexes can be probed. The method is described below. • 1. Take Pepset pins from storage at −20(° C.) and equilibrate at room temperature. • 2. Wash pins with PBS for 10 minutes at room temperature on a shaking table. • 3. Incubate pins with blocking buffer (2% w/v BSA 0.1% Tween 20 in PBS) for 60 minutes at room temperature on a shaker. • 4. Wash pins with PBS for 10 minutes at room temperature on a shaker (times 1) • 5. […] Remove pins from the microtitre plate and read the microtitre plate at 410 nm on a Dynatech ELISA plate reader. • 16. Results are expressed as a 410 nm absorbance reading for each well corresponding to each unique substrate peptide from the actin molecule. […]

Assay [2] deals with T2, CCT (chaperonin containing TCP-1) complex from mouse testis (mouse, UniProt P11983 1-556; P80314 2-535; P80318 1-545; P80315 1-539; P80316 2-541; P80317 …).
T2 construct: Hetero-oligomer: eight different subunits in each of two rings (double toroid, about 920 kDa), enriched from mouse testis 20S sucrose gradient fractions; Testis also holds CCTζ2; also called CCT complex; intact CCT
Description: biotinylated peptide with CCT in solution, 6% native PAGE, blot probed with streptavidin/Neutravidin-HRP.

* marks the point of attachment. Biotin = O=C1N[C@H]2[C@H](CS[C@H]2CCCCC(=O)*)N1

For GGTTMYPGIADRMQK [substrate peptide 61], the “CCT binding to immobilised substrate peptide (410 nm absorbance reading)” value in assay [1] is reported as “new protein interaction site”.

B1: peptide 8.6, biotin-SGSG-AAAAAQGVMVGMGQK (peptide)
peptide: Biotin-SGSGAAAAAQGVMVGMGQK-NH2
SMILES: CSCC[C@H](NC(=O)CNC(=O)[C@@H](NC(=O)[C@H](CCSC)NC(=O)[C@@H](NC(=O)CNC(=O)[C@H](CCC(N)=O)NC(=O)[C@H](C)NC(=O)[C@H](C)NC(=O)[C@H](C)NC(=O)[C@H](C)NC(=O)[C@H](C)NC(=O)CNC(=O)[C@H](CO)NC(=O)CNC(=O)[C@H](CO)NC(=O)CCCC[C@@H]1SC[C@@H]2NC(=O)N[C@@H]21)C(C)C)C(C)C)C(=O)NCC(=O)N[C@@H](CCC(N)=O)C(=O)N[C@@H](CCCCN)C(N)=O
notes: All five core residues replaced by alanine
Consider B1, for which, in assay [2], the binding result is “no binding (tested: peptide 13.3 µM or 1.33 µM, CCT 70 nM)”.
